# According to patent US11427812B2, “Antimicrobial agents against Staphylococcus aureus” (LYSANDO AG, priority 2016, dated 2022):
# Changes are numbered by the printed parent chain. Names and notes keep the numbering of the source.
# B1: Clone 11: variant of SEQ ID NO: 107 with mutations K17E, H51Q (protein)
# chain: MAKTQAEINKRLDAYAEGTVDSPYRVKKATSYDPSFGVMEAGAIDADGYYQAQCQDLITDYVLWLTDNKVRTWGNAKDQIKQSYGTGFKIHENKPSTVPKKGWIAVFTSGSYEQWGHIGIVYDGGNTSTFTILEQNWNGYANKKPTKRVDNYYGLTHFIEIPVKAGTTVKKETAKKSATSHEHSAQWLNNYKKGYGYGPYPLGINGGMHYGVDFFMNIGTPVKAISSGKIVEAGWSNYGGGNQIGLIENDGVHRQWYMHLSKYNVKVGDYVKAGQIIGWSGSTGYSTAPHLHFQRMVNSFSNSTAQDPMPFLKSAGYGKAGGTVTPTPNPGNGYKTNKYGTLYKSESASFTANTDIITRLTGPFRSMPQSGVLRKGLTIKYDEVMKQDGHVWVGYNTNSGKRVYLPVRTWNESTGELGPLWGTIKGSHHHHHHGGSKNK
# modifications: Fusion protein comprising CHAP domain of LysK endolysin, M23 endopeptidase domain of lysostaphin, cell wall binding domain of ALE-1, His6-tag and synthetic peptide KNK
# B2: SEQ ID NO: 107: fusion protein: CHAP domain of LysK, M23 endopeptidase domain of lysostaphin, CBD of ALE-1 and a further peptide (cathepsin G (77-83) or KNK) (protein)
# chain: B1 chain with E17K, Q51H
# modifications: Fusion protein comprising CHAP domain of LysK endolysin, M23 endopeptidase domain of lysostaphin, cell wall binding domain of ALE-1, His6-tag and synthetic peptide KNK
# B3: Clone 15: variant of SEQ ID NO: 107 with mutations K17E, H51Q, K28N, T86A, G154S (protein)
# chain: B1 chain with K28N, T86A, G154S
# modifications: Fusion protein comprising CHAP domain of LysK endolysin, M23 endopeptidase domain of lysostaphin, cell wall binding domain of ALE-1, His6-tag and synthetic peptide KNK
# B4: SEQ ID NO: 105: fusion protein: CHAP domain of LysK, M23 endopeptidase domain of lysostaphin, CBD of ALE-1 and a further peptide (cathepsin G (77-83) or KNK) (protein)
# chain: MAKTQAEINKRLDAYAKGTVDSPYRVKKATSYDPSFGVMEAGAIDADGYYHAQCQDLITDYVLWLTDNKVRTWGNAKDQIKQSYGTGFKIHENKPSTVPKKGWIAVFTSGSYEQWGHIGIVYDGGNTSTFTILEQNWNGYANKKPTKRVDNYYGLTHFIEIPVKAGTTVKKETAKKSATSHEHSAQWLNNYKKGYGYGPYPLGINGGMHYGVDFFMNIGTPVKAISSGKIVEAGWSNYGGGNQIGLIENDGVHRQWYMHLSKYNVKVGDYVKAGQIIGWSGSTGYSTAPHLHFQRMVNSFSNSTAQDPMPFLKSAGYGKAGGTVTPTPNPGNGYKTNKYGTLYKSESASFTANTDIITRLTGPFRSMPQSGVLRKGLTIKYDEVMKQDGHVWVGYNTNSGKRVYLPVRTWNESTGELGPLWGTIKHHHHHHLKHPQYNQR
# modifications: Fusion protein comprising CHAP domain of LysK endolysin, M23 endopeptidase domain of lysostaphin, cell wall binding domain of ALE-1, His6-tag and synthetic peptide HPQYNQR
# How the values were obtained:
# S. aureus Sp10 = assay: MIC assay over several culture cycles (resistance development); assay type: cell-based, Staphylococcus aureus
# Text: Becker et al. (Sci Rep. 2016 Apr. 28; 6:25063) reported construction of fusion protein L-K with reduced incidence of resistant S. aureus strain development. In an attempt to provide other improved fusion proteins against S. aureus, the inventors generated two fusion proteins, each comprising the CHAP domain of LysK endolysin, the M23 endopeptidase domain of lysostaphin; and the cell wall binding domain (CBD) of ALE-1. In addition, one of the fusion proteins did comprise the cathepsin G (77-83) peptide (SEQ ID NO:94), the other the cationic peptide KNK (SEQ ID NO:38). The resulting fusion proteins (SEQ ID NO:105 and SEQ ID NO: 107) were assayed for antibacterial activity and resistance development. For this purpose MIC (minimal inhibitory concentration) assays (see below) were carried out for several culture cycles.
# MIC assay S. aureus Sp10 was grown in (Luria-Bertani) medium and diluted 1:10 in Mueller-Hinton medium. At an optical density OD600 of about 0.6, bacteria were diluted in the same medium 1:10 followed by a 1:500 dilution. Protein buffer (20 mM HEPES, 500 mM NaCl, pH 7.4) and proteins or gentamycin were pipetted into a 96 well plate, using different concentrations of proteins/gentamycin and an end volume of 20 μl. The proteins used were the fusion proteins according to SEQ ID NO:105 and SEQ ID NO: 107. 180 μl of bacterial cells or a medium (Mueller-Hinton) control were given to the 96 well plate and mixed. The plate was incubated for 18-22 hours at 37° C. and the bacterial growth was determined measuring the OD600 values of the wells. The well with the lowest concentration of protein/gentamycin showing the same OD600 value as the medium control was taken as MIC. For the next cycle, the bacterial solution from the sub-MIC well was used. The sub-MIC well is the well in which the next lower concentration to the MIC concentration was tested, i.e. the well with the highest concentration of protein/gentamycin but still OD600 above the medium control. For further cycles of the resistance assay, the bacteria from this sub-MIC well of the previous cycle were taken for the next over-night culture.
# [1] = test system: Staphylococcus aureus DSM 346; assay: Thermal stability assay (standard MIC assay after heat incubation); assay type: cell-based; settings: for MIC: protein 0.3 mg/ml, DSM 346; for thermal stability: in comparison to the unmodified fusion protein
# Method: In addition, thermal stability was assessed for two of said mutants in comparison to the unmodified fusion protein. The thermal stability assay was carried out with the strain Staphylococcus aureus DSM 346. The proteins were diluted to a concentration of 0.3 mg/ml followed by an incubation for 20 minutes at different temperatures (see table 8 below). A standard MIC assay was carried out after this incubation time.
# [2] = cycle 1 (initial MIC), S. aureus Sp10
# [3] = cycle 1, fold change over initial MIC (cycle 1)
# [4] = cycle 6, fold change over initial MIC (cycle 1)
# [5] = cycle 12, fold change over initial MIC (cycle 1)
# [6] = after 20 minutes incubation at 44.6° C.
# [7] = after 20 minutes incubation at 47.1° C.
# [8] = after 20 minutes incubation at 49.7° C.
# [9] = after 20 minutes incubation at 52.3° C.
# [10] = after 20 minutes incubation at 54.9° C.
# [11] = after 20 minutes incubation at 57.4° C.
# [12] = after 20 minutes incubation at 60° C.
# [13] = after 20 minutes incubation at RT
Molecule,Minimal inhibitory concentration (MIC) (S. aureus Sp10; [2]) [µg/mL],Fold change of MIC (S. aureus Sp10; [3]),"Minimal inhibitory concentration (MIC) (S. aureus Sp10; cycle 6, S. aureus Sp10) [µg/mL]",Fold change of MIC (S. aureus Sp10; [4]),"Minimal inhibitory concentration (MIC) (S. aureus Sp10; cycle 12, S. aureus Sp10) [µg/mL]",Fold change of MIC (S. aureus Sp10; [5]),"MIC [1, 6] [µg/mL]","MIC [1, 7] [µg/mL]","MIC [1, 8] [µg/mL]","MIC [1, 9] [µg/mL]","MIC [1, 10] [µg/mL]","MIC [1, 11] [µg/mL]","MIC [1, 12] [µg/mL]","MIC [1, 13] [µg/mL]",thermal stability [1]
gentamycin [reference compound],0.8,1,4,5,6,7.5,–,–,–,–,–,–,–,–,–
B1,–,–,–,–,–,–,6,10,10,16,>30,>30,>30,4,increased thermal stability
B2,4,1,4,1,6,1.5,20,25,30,30,>30,>30,>30,6,–
B3,–,–,–,–,–,–,4,4,4,4,4,6,8,4,increased thermal stability
B4,4,1,4,1,6,1.5,–,–,–,–,–,–,–,–,–
